Assay results published in US20250145711A1 (Janssen / Centocor, published 2025).

The binders below were run against T1, TRCW5 antigen (CD3δε-Fc-Avi) (biotinylated (site not stated)) (assay: ELISA after heat).
T1 construct: also called recombinant CD3
T1 sequence (chain, as listed by the source mutant limits assumed): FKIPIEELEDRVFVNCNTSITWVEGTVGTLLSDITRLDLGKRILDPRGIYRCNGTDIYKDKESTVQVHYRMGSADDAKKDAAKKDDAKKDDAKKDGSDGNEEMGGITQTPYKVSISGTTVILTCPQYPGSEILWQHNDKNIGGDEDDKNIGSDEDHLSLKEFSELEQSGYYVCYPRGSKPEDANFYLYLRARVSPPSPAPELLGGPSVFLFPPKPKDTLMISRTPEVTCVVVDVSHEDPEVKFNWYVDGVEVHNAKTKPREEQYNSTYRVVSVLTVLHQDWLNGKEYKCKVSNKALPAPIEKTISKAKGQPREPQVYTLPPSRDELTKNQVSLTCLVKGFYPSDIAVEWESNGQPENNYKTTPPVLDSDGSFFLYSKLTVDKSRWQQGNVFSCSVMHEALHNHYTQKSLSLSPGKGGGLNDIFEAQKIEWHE

Binder | % Retained 55° C. | % Retained 60° C. | % Retained 65° C.
CD3B2053 (scFv) scFv: QVQLVQSGAEVKKPGSSVKVSCKASGYTFTRSTMHWVKQAPGQGLEWMGYINPSSAYTNYAQKFQGRVTLTADKSTSTAYMELSSLRSEDTAVYYCASPQVHYDYNGFPYWGQGTLVTVSSGGSEGKSSGSGSESKSTGGSEIVLTQSPATLSASPGERVTLSCSASSSVSYMNWYQQKPGQSPRRLIYDSSKLASGVPARFSGSGSGRDYTLTISSLEPEDFAVYYCQQWSRNPPTFGGGTKVEIK | 115% | 112% | 30%
CD3B2056 (scFv) scFv: QVQLVQSGAEVKKPGSSVKVSCKASGYTFTRSTMHWVRQAPGQGLEWIGYINPSSAYTNYNQKFQGRVTLTADKSTSTAYMELSSLRSEDTAVYYCASPQVHYDYNGFPYWGQGTLVTVSSGGSEGKSSGSGSESKSTGGSEIVLTQSPATLSASPGERVTLSCSASSSVSYMNWYQQKPGQSPRRLIYDSSKLASGVPARFSGSGSGRDYTLTISSLEPEDFAVYYCQQWSRNPPTFGGGTKVEIK | 101% | 80% | 9%
CD3B2054 (scFv) scFv: QVQLVQSGAEVKKPGSSVKVSCKASGYTFTRSTMHWVKQAPGQGLEWMGYINPSSAYTNYAQKFQGRVTLTADKSTSTAYMELSSLRSEDTAVYYCASPQVHYDYNGFPYWGQGTLVTVSSGGSEGKSSGSGSESKSTGGSEIVLTQSPATLSASPGERVTLSCSASSSVSYMNWYQQKPGQAPRRLIYDSSKLASGVPARFSGSGSGRDYTLTISSLEPEDFAVYYCQQWSRNPPTFGGGTKVEIK | 106% | 100% | 23%
CD3B2062 (scFv) scFv: QVQLVQSGAEVKKPGSSVKVSCKASGYTFTRSTMHWVKQAPGQGLEWIGYINPSSAYTNYAQKFQGRVTLTADKSTSTAYMELSSLRSEDTAVYYCASPQVHYDYNGFPYWGQGTLVTVSSGGSEGKSSGSGSESKSTGGSEIVLTQSPATLSASPGERVTLSCSASSSVSYMNWYQQKPGTSPRRLIYDSSKLASGVPARFSGSGSGRDYTLTISSLEPEDFAVYYCQQWSRNPPTFGGGTKVEIK | 110% | 102% | 14%
CD3B2061 (scFv) scFv: QVQLVQSGAEVKKPGSSVKVSCKASGYTFTRSTMHWVKQAPGQGLEWIGYINPSSAYTNYAQKFQGRVTLTADKSTSTAYMELSSLRSEDTAVYYCASPQVHYDYNGFPYWGQGTLVTVSSGGSEGKSSGSGSESKSTGGSEIVLTQSPATLSASPGERVTLSCSASSSVSYMNWYQQKPGTAPRRWIYDSSKLASGVPARFSGSGSGRDYTLTISSLEPEDFAVYYCQQWSRNPPTFGGGTKVEIK | 116% | 107% | 9%
CD3B2074 (scFv) scFv: QVQLVQSGAEVKKPGSSVKVSCKASGYTFTRSTMHWVRQAPGQGLEWIGYINPSSAYTNYAQKFQGRVTLTADKSTSTAYMELSSLRSEDTAVYYCASPQVHYDYNGFPYWGQGTLVTVSSGGSEGKSSGSGSESKSTGGSEIVLTQSPATLSASPGERVTLSCSASSSVSYMNWYQQKPGTSPRRWIYDSSKLASGVPARFSGSGSGRDYTLTISSLEPEDFAVYYCQQWSRNPPTFGGGTKVEIK | 104% | 101% | 6%
CD3B2059 (scFv) scFv: QVQLVQSGAEVKKPGSSVKVSCKASGYTFTRSTMHWVKQAPGQGLEWIGYINPSSAYTNYAQKFQGRVTLTADKSTSTAYMELSSLRSEDTAVYYCASPQVHYDYNGFPYWGQGTLVTVSSGGSEGKSSGSGSESKSTGGSEIVLTQSPATLSASPGERVTLSCSASSSVSYMNWYQQKPGQSPRRLIYDSSKLASGVPARFSGSGSGRDYTLTISSLEPEDFAVYYCQQWSRNPPTFGGGTKVEIK | 112% | 98% | 13%
CD3B2067 (scFv) scFv: QVQLVQSGAEVKKPGSSVKVSCKASGYTFTRSTMHWVRQAPGQGLEWMGYINPSSAYTNYNQKFQGRVTLTADKSTSTAYMELSSLRSEDTAVYYCASPQVHYDYNGFPYWGQGTLVTVSSGGSEGKSSGSGSESKSTGGSEIVLTQSPATLSASPGERVTLSCSASSSVSYMNWYQQKPGQSPRRLIYDSSKLASGVPARFSGSGSGRDYTLTISSLEPEDFAVYYCQQWSRNPPTFGGGTKVEIK | 98% | 63% | 5%
CD3B2060 (scFv) scFv: QVQLVQSGAEVKKPGSSVKVSCKASGYTFTRSTMHWVKQAPGQGLEWIGYINPSSAYTNYAQKFQGRVTLTADKSTSTAYMELSSLRSEDTAVYYCASPQVHYDYNGFPYWGQGTLVTVSSGGSEGKSSGSGSESKSTGGSEIVLTQSPATLSASPGERVTLSCSASSSVSYMNWYQQKPGQAPRRLIYDSSKLASGVPARFSGSGSGRDYTLTISSLEPEDFAVYYCQQWSRNPPTFGGGTKVEIK | 107% | 100% | 21%
CD3B2066 (scFv) scFv: QVQLVQSGAEVKKPGSSVKVSCKASGYTFTRSTMHWVRQAPGQGLEWMGYINPSSAYTNYNQKFQGRVTLTADKSTSTAYMELSSLRSEDTAVYYCASPQVHYDYNGFPYWGQGTLVTVSSGGSEGKSSGSGSESKSTGGSEIVLTQSPATLSASPGERVTLSCSASSSVSYMNWYQQKPGTSPRRWIYDSSKLASGVPARFSGSGSGRDYTLTISSLEPEDFAVYYCQQWSRNPPTFGGGTKVEIK | 109% | 109% | 11%
CD3B2083 (scFv) scFv: QVQLVQSGAEVKKPGSSVKVSCKASGYTFTRSTMHWVRQAPGQGLEWMGYINPSSAYTNYAQKFQGRVTLTADKSTSTAYMELSSLRSEDTAVYYCASPQVHYDYNGFPYWGQGTLVTVSSGGSEGKSSGSGSESKSTGGSEIVLTQSPATLSASPGERVTLSCSASSSVSYMNWYQQKPGQSPRRLIYDSSKLASGVPARFSGSGSGRDYTLTISSLEPEDFAVYYCQQWSRNPPTFGGGTKVEIK | 104% | 84% | 4%
CD3B2068 (scFv) scFv: QVQLVQSGAEVKKPGSSVKVSCKASGYTFTRSTMHWVRQAPGQGLEWMGYINPSSAYTNYNQKFQGRVTLTADKSTSTAYMELSSLRSEDTAVYYCASPQVHYDYNGFPYWGQGTLVTVSSGGSEGKSSGSGSESKSTGGSEIVLTQSPATLSASPGERVTLSCSASSSVSYMNWYQQKPGQAPRRLIYDSSKLASGVPARFSGSGSGRDYTLTISSLEPEDFAVYYCQQWSRNPPTFGGGTKVEIK | 103% | 88% | 10%
CD3B2070 (scFv) scFv: QVQLVQSGAEVKKPGSSVKVSCKASGYTFTRSTMHWVRQAPGQGLEWMGYINPSSAYTNYNQKFQGRVTLTADKSTSTAYMELSSLRSEDTAVYYCASPQVHYDYNGFPYWGQGTLVTVSSGGSEGKSSGSGSESKSTGGSEIVLTQSPATLSASPGERVTLSCSASSSVSYMNWYQQKPGTSPRRLIYDSSKLASGVPARFSGSGSGRDYTLTISSLEPEDFAVYYCQQWSRNPPTFGGGTKVEIK | 107% | 82% | 6%
CD3B2057 (scFv) scFv: QVQLVQSGAEVKKPGSSVKVSCKASGYTFTRSTMHWVRQAPGQGLEWIGYINPSSAYTNYNQKFQGRVTLTADKSTSTAYMELSSLRSEDTAVYYCASPQVHYDYNGFPYWGQGTLVTVSSGGSEGKSSGSGSESKSTGGSEIVLTQSPATLSASPGERVTLSCSASSSVSYMNWYQQKPGQAPRRLIYDSSKLASGVPARFSGSGSGRDYTLTISSLEPEDFAVYYCQQWSRNPPTFGGGTKVEIK | 92% | 66% | 3%
CD3B2075 (scFv) scFv: QVQLVQSGAEVKKPGSSVKVSCKASGYTFTRSTMHWVRQAPGQGLEWIGYINPSSAYTNYAQKFQGRVTLTADKSTSTAYMELSSLRSEDTAVYYCASPQVHYDYNGFPYWGQGTLVTVSSGGSEGKSSGSGSESKSTGGSEIVLTQSPATLSASPGERVTLSCSASSSVSYMNWYQQKPGQSPRRLIYDSSKLASGVPARFSGSGSGRDYTLTISSLEPEDFAVYYCQQWSRNPPTFGGGTKVEIK | 103% | 87% | 6%
CD3B2076 (scFv) scFv: QVQLVQSGAEVKKPGSSVKVSCKASGYTFTRSTMHWVRQAPGQGLEWIGYINPSSAYTNYAQKFQGRVTLTADKSTSTAYMELSSLRSEDTAVYYCASPQVHYDYNGFPYWGQGTLVTVSSGGSEGKSSGSGSESKSTGGSEIVLTQSPATLSASPGERVTLSCSASSSVSYMNWYQQKPGQAPRRLIYDSSKLASGVPARFSGSGSGRDYTLTISSLEPEDFAVYYCQQWSRNPPTFGGGTKVEIK | 100% | 82% | 7%
CD3B2055 (scFv) scFv: QVQLVQSGAEVKKPGSSVKVSCKASGYTFTRSTMHWVRQAPGQGLEWIGYINPSSAYTNYNQKFQGRVTLTADKSTSTAYMELSSLRSEDTAVYYCASPQVHYDYNGFPYWGQGTLVTVSSGGSEGKSSGSGSESKSTGGSEIVLTQSPATLSASPGERVTLSCSASSSVSYMNWYQQKPGTSPRRWIYDSSKLASGVPARFSGSGSGRDYTLTISSLEPEDFAVYYCQQWSRNPPTFGGGTKVEIK | 102% | 96% | 11%
